Experiments:
[1] = target: endogenous SMN protein in human CSF (human) (UniProt Q16637); test: Erenna sandwich assay, capture MABE230; human CSF sample 1, unspiked (endogenous SMN only)
[2] = target: His-tagged recombinant human SMN protein (ProteinTech, catalog # ag14333) (human) (UniProt Q16637); test: Erenna sandwich assay, capture MABE230; human CSF sample 1 spiked with recombinant SMN 5.0 pg/mL (endogenous SMN also present)
[3] = target: His-tagged recombinant human SMN protein (ProteinTech, catalog # ag14333) (human) (UniProt Q16637); test: Erenna sandwich assay, capture MABE230; SMN 2 pg/mL, MPs 5 µg/well, Det Ab 500 ng/mL, Cap Ab/MP 12.5 µg/mg
[4] = target: His-tagged recombinant human SMN protein (ProteinTech, catalog # ag14333) (human) (UniProt Q16637); test: Erenna sandwich assay, capture MABE230 12.5 µg/mg MPs; Det Ab 500 ng/mL; SMN 200.00 pg/mL
[5] = target: His-tagged recombinant human SMN protein (ProteinTech, catalog # ag14333) (human) (UniProt Q16637); test: Erenna sandwich assay, capture MABE230; human CSF sample 5 spiked with recombinant SMN 5.0 pg/mL (endogenous SMN also present)
[6] = target: His-tagged recombinant human SMN protein (ProteinTech, catalog # ag14333) (human) (UniProt Q16637); test: Erenna sandwich assay, capture MABE230 12.5 µg/mg MPs; Det Ab 1000 ng/mL; SMN 0.12 pg/mL
[7] = target: His-tagged recombinant human SMN protein (ProteinTech, catalog # ag14333) (human) (UniProt Q16637); test: Erenna sandwich assay, capture MABE230; SMN 2 pg/mL, MPs 5 µg/well, Det Ab 1000 ng/mL, Cap Ab/MP 25 µg/mg
[8] = target: His-tagged recombinant human SMN protein (ProteinTech, catalog # ag14333) (human) (UniProt Q16637); test: Erenna sandwich assay, capture MABE230; SMN 2 pg/mL, MPs 5 µg/well, Det Ab 100 ng/mL, Cap Ab/MP 12.5 µg/mg
[9] = target: His-tagged recombinant human SMN protein (ProteinTech, catalog # ag14333) (human) (UniProt Q16637); test: Erenna sandwich assay, capture MABE230; SMN 2 pg/mL, MPs 10 µg/well, Det Ab 500 ng/mL, Cap Ab/MP 25 µg/mg
[10] = target: His-tagged recombinant human SMN protein (ProteinTech, catalog # ag14333) (human) (UniProt Q16637); test: Erenna sandwich assay, capture MABE230 12.5 µg/mg MPs; Det Ab 500 ng/mL; SMN 0.06 pg/mL

ProteinTech anti-SMN2 (catalog #60154-1-Ig) (antibody)
detected events (DE) (detected events) [1]: 330 | detected events (DE) (detected events) [2]: 5070 | detected events (DE) (detected events) [3]: 1950 | detected events (DE) (detected events) [4]: 9460 | event photons (EP) (event photons) [4]: 1.86e+07 | detected events (DE) (detected events) [5]: 6070 | detected events (DE) (detected events) [6]: 193 | event photons (EP) (event photons) [6]: 26300 | detected events (DE) (detected events) [7]: 2180 | detected events (DE) (detected events) [8]: 753 | detected events (DE) (detected events) [9]: 2400 | detected events (DE) (detected events) [10]: 91 | event photons (EP) (event photons) [10]: 14200
